The values below come from paper PMC5057311.

Test [1] concerns the target CD86 on cynomolgus monkey blood cells (cynomolgus monkey (endogenous in blood cells)). Description: flow cytometry on cells.
The target in test [2] is CD80 on cynomolgus monkey blood cells (cynomolgus monkey (endogenous in blood cells)). Description: flow cytometry on cells. (In general: Flow cytometry measures light scatter and fluorescence of single cells or particles in a stream.)

With “CTLA4‐Ig recombinant fusion protein (from UniProt P16410 36-161) (Fc fusion)”, in test [1], the percent free CD86 of predose, 4 h after the low dose (0.03 mg/kg) stood at 67% and the serum CTLA4‐Ig concentration at ∼90% target suppression was found to be 33 µg/mL. In addition, in test [2], the percent free CD80 of predose, Day 14, high dose (3 mg/kg) was 3%; the percent free CD80 of predose, Day 14, middle dose (0.3 mg/kg) came to 42%; the percent suppression of free CD80 upon administration (all dose groups) was > 90%; the serum CTLA4‐Ig concentration at ∼90% target suppression was 0.18 µg/mL.
